Assay results reported in patent publication US8629107B2, “Genes and proteins associated with angiogenesis and uses thereof” (National Jewish Health, priority 2005, dated 2014).

Tests used:
Assay type in all cases: cell-based, murine
[1] = system: MB114 cells; assay: angiogenic sprouting in rat tail collagen matrices; details: 5 days; for angiogenic sprouting of quiescent MB114 cell monolayers: MB114 cells stably expressing the transgene vs GFP, 10% FBS
Description: (§1) The effect putative angiogenic agents had on MB114 cell activities were determined as follows: (i) cell proliferation using a [^3H]thymidine incorporation assay as described (Albig et al, 2006; Albig and Schiemann, 2004; Albig and Schiemann, 2005); (ii) cell invasion through Matrigel matrices using a modified Boyden-chamber assay as described (Albig et al, 2006; Albig and Schiemann, 2004; Albig and Schiemann, 2005); (iii) p38 MAPK phosphorylation using immunoblot analyses as described (Albig et al, 2006; Albig and Schiemann, 2004; Albig and Schiemann, 2005); (iv) angiogenic sprouting in rat tail collagen matrices as described (Albig et al, 2006; Albig and Schiemann, 2004); and (v) Hes1- and SBE-driven luciferase reporter gene assays as described (Albig et al, 2006; Albig and Schiemann, 2004; Albig and Schiemann, 2005).
Finally, it was determined whether expression of these putative angiogenic factors could effect the angiogenic sprouting of quiescent MB114 cells monolayers. MB114 cells expressing either GFP or various putative angiogenic agents were grown to confluency, and subsequently were overlaid with rat tail collagen matrices. Angiogenic sprouting by quiescent EC monolayers was stimulated by inclusion of 10% FBS and allowed to proceed for 5 days. The quantity of invading angiogenic sprouts was determined by manual counting under a light microscope.
Based on the findings described in the Examples above, the inventors hypothesized that MAGP-2 promotes angiogenesis by antagonizing Notch1 signaling. To test this hypothesis, it was first determined whether inhibiting Notch signaling in MB114 cells would enhance their angiogenic sprouting. In doing so, MB114 cells were transiently transfected with the Hes1-luciferase reporter gene (and pCMV-β-gal cDNA as control), and subsequently were treated overnight with or without the highly specific gamma-secretase inhibitor, DAPT (Sastre et al, 2001), which inhibits S3-mediated cleavage of Notch1 and, consequently, NICD-mediated induction of Hes1 expression. Afterward, luciferase and β-gal activities were determined. […] In this experiment, quiescent MB114 cell monolayers were overlaid with rat tail collagen matrices, and were induced to form angiogenic sprouts by addition of 10% FBS supplemented with or without DAPT (10 μM). Five days later the number of invading angiogenic spouts were quantified by manual counting on a light microscope. Based on these findings, the inventors conclude that Notch activation functions in mediating angiostasis in MB114 cells. […] Collectively, these findings indicate that Notch1 signaling antagonizes angiogenic sprouting in MB114 cells, and that downregulation of Notch1 signaling components is necessary for angiogenesis activation in MB114 cells.
Having shown that Notch1 signaling mediates angiostasis in MB114 cells, the inventors next asked whether MAGP-2 promotes angiogenesis in MB114 cells via its ability to antagonize Notch signaling. To do so, MAGP-2-expressing MB114 cells were engineered to constitutively express active Notch1 NICD fragment in an attempt to overcome the block of Notch processing mediated by MAGP-2. More particularly, GFP-, MAGP-2-, and MAGP-2/N1ICD-expressing MB114 cells were transiently transfected with pHes1-luciferase and pCMV-β-gal cDNAs. Luciferase and β-gal activities were determined 48 h post-transfection. As the inventors observed previously, MAGP-2 expression reduced Hes1-luciferase activity in MB114 cells (FIG. 5C), a reaction that was bypassed by co-expression of NICD in these cells (FIG. 5C). […] In this experiment, quiescent monolayers of GFP-, MAGP-2-, and MAGP-2/N1ICD-expressing MB114 cells were overlaid with rat tail collagen matrices and incubated in the absence or presence of 10% FBS for 5 days. Afterward, the number of invading angiogenic sprouts were determined by manual counting under a light microscope.

[2] = system: Hes1 promoter (Notch1 signaling); assay: Hes1-driven luciferase reporter gene assay in MB114 cells; details: MB114 cells treated overnight with 10 μM
Description: as §1
MAGP-2 can interact physically with Notch1 and its ligand, Jagged-1 (Miyamoto et al, 2006; Nehring et al, 2005), resulting in the ectodomain shedding of both molecules from the cell surface. Notch signaling also plays an essential role in regulating normal vessel development and angiogenesis in mammals (Leong and Karsan, 2005; Shawber and Kitajewski, 2004). Given these two facts, the inventors hypothesized that MAGP-2 promotes angiogenesis by modulating Notch1 signaling. To test this hypothesis, first measured were changes in luciferase expression driven by a Hes1-luciferase reporter gene whose expression is induced by Notch1 activation (Iso et al, 2003). MB114 and HUVEC cells were transiently transfected either with pHes1-luciferase, pCMV-β-gal, and MAGP-2 cDNAs, or with pHes1-luciferase and pCMV-β-gal cDNAs and subsequently stimulated with rMAGP-2 (1 or 5 mg/ml). Afterward, luciferase and β-gal activities contained in detergent-solubilized cell extracts were measured. In addition, GFP- and MAGP-2-expressing MB114 cells were transiently transfected with pHes1-luciferase and pCMV-β-gal cDNAs, together with or without Jagged-1 cDNA as indicated. Afterward, luciferase and β-gal activities were measured as above.
To further investigate the impact of MAGP-2 on Notch1 processing and NICD accumulation, the inventors took advantage of recent findings showing that the ability of TGF-β to induce Hes1 promoter activity requires Smad3 to interact physically with NICD (Blokzijl et al, 2003), a reaction that is dispensable for canonical Smad3-mediated signaling stimulated by TGF-β (Blokzijl et al, 2003). It was therefore reasoned that the ability of MAGP-2 to inhibit NICD production in ECs would reduce the capacity of TGF-β to induce luciferase expression driven by the Hes1 promoter, but not that driven by the synthetic Smad2/3-binding element (SBE). GFP- and MAGP-2-expressing MB114 cells were transiently transfected with either pHes1- or pSBE-luciferase, both together with pCMV-β-gal as indicated in FIG. 4B. Afterward, the resulting transfectants were stimulated overnight with increasing concentrations of TGF-β1 (0-5 ng/ml).
Based on the findings described in the Examples above, the inventors hypothesized that MAGP-2 promotes angiogenesis by antagonizing Notch1 signaling. To test this hypothesis, it was first determined whether inhibiting Notch signaling in MB114 cells would enhance their angiogenic sprouting. […] Afterward, luciferase and β-gal activities were determined. […]

[3] = system: MB114 cells; assay: cell proliferation, [3H]thymidine incorporation assay; details: serum-starved MB114 cells stably expressing the transgene vs GFP; EGF 10 ng/ml, 24 h, 37° C.
Description: as §1
(§2) FIG. 1A show results from an experiment in which serum-starved MB114 cells, stably expressing either GFP or various putative angiogenic agents, were stimulated in the absence or presence of either bFGF (50 ng/ml) or EGF (10 ng/ml) for 24 h at 37° C. Differences in MB114 cell DNA synthesis was determined by measuring [^3H]thymidine incorporation into cellular DNA. […] In this experiment, invasion of MB114 cells expressing either GFP or various putative angiogenic agents through synthetic basement membranes was determined over 48 h using a modified Boyden-chamber assay.

[4] = system: MB114 cells; assay: cell invasion through Matrigel matrices, modified Boyden-chamber assay; details: MB114 cells stably expressing the transgene vs GFP; 48 h
Description: as §1, §2

Molecule: C[C@H](NC(=O)Cc1cc(F)cc(F)c1)C(=O)N[C@H](C(=O)OC(C)(C)C)c1ccccc1 [DAPT, reference compound]
- number of invading angiogenic sprouts ([1]; MB114 monolayers, 10% FBS with 10 μM compound vs untreated): significantly more
- Hes1 promoter activity (Hes1-luciferase) [2]: significantly inhibited

B1: ECM-1: secretory glycoprotein stably expressed in MB114 cells by retroviral transduction (protein, UniProt Q61508 20-559, looked up)
Extracellular matrix protein 1: ASEGAFKASDQREMTPERLFQHLHEVGYAAPPSPPQTRRLRVDHSVTSLHDPPLFEEQREVQPPSSPEDIPVYEEDWPTFLNPNVDKAGPAVPQEAIPLQKEQPPPQVHIEQKEIDPPAQPQEEIVQKEVKPHTLAGQLPPEPRTWNPARHCQQGRRGVWGHRLDGFPPGRPSPDNLKQICLPERQHVIYGPWNLPQTGYSHLSRQGETLNVLETGYSRCCRCRSDTNRLDCLKLVWEDAMTQFCEAEFSVKTRPHLCCRLRGEERFSCFQKEAPRPDYLLRPCPVHQNGMSSGPQLPFPPGLPTPDNVKNICLLRRFRAVPRNLPATDAIQRQLQALTRLETEFQRCCRQGHNHTCTWKAWEGTLDGYCERELAIKTHPHSCCHYPPSPARDECFAHLAPYPNYDRDILTLDLSRVTPNLMGQLCGSGRVLSKHKQIPGLIQNMTIRCCELPYPEQACCGEEEKLAFIENLCGPRRNSWKDPALCCDLSPEDKQINCFNTNYLRNVALVAGDTGNATGLGEQGPTRGTDANPAPGSKEE
- angiogenic sprouting of quiescent MB114 cell monolayers [1]: significantly decreased

B2: AK002276: putative transmembrane protein stably expressed in MB114 cells by retroviral transduction (protein, listed as Mus musculus)
chain: MASRESGGSRAAALLLVLGVERSLALPKICTLCPGGMHNLSRVAAYCEDTSKLMQARCCLNQKGPILGLNLQNCSLKDPGPNFLQAYTAIIIDLQANPLKDDLANTFRGFTQLQTLILPQDVPCPGGSNAWDNVTSFKDKQICQGQRDLCNSTGSPEMCPENGSCASDGPGLLQCVCADGFHGYKCMRQGSFSLLMFFGILGSTTLAISILLWGTQRRKAKAS
- proliferative response of MB114 cells to EGF ([3H]thymidine incorporation into cellular DNA) [3]: significantly enhanced
- angiogenic sprouting of quiescent MB114 cell monolayers [1]: failed to significantly affect

B3: CRELD-2: secretory protein stably expressed in MB114 cells by retroviral transduction (protein, UniProt Q9CYA0 23-350, looked up)
Protein disulfide isomerase …: SRKPTMCQRCRTLVDKFNQGMANTARKNFGGGNTAWEEKTLSKYEFSEIRLLEIMEGLCDSSDFECNQLLEQQEEQLEAWWQTLKKEHPNLFEWFCVHTLKACCLPGTYGPDCQECQGGSERPCSGNGYCSGDGSRQGDGSCQCHTGYKGPLCIDCTDGFFSLQRNETHSICSACDESCKTCSGPSNKDCIQCEVGWARVEDACVDVDECAAETSPCSDGQYCENVNGSYTCEDCDSTCVGCTGKGPANCKECIAGYTKESGQCTDIDECSLEEKACKRKNENCYNVPGSFVCVCPEGFEETEDACVQTAEGKVTEENPTQPPSREDL
- MB114 cell invasion through synthetic basement membranes [4]: significantly induced
- angiogenic sprouting of quiescent MB114 cell monolayers [1]: failed to significantly affect

B4: matrillin-2: secretory protein stably expressed in MB114 cells by retroviral transduction (protein, UniProt O08746 24-956, looked up)
Matrilin-2: RERPQARFPSRGRHVRMYPQTALLESSCENKRADLVFIIDSSRSVNTYDYAKVKEFILDILQFLDIGPDVTRVGLLQYGSTVKNEFSLKTFKRKSEVERAVKRMRHLSTGTMTGLAIQYALNIAFSEAEGARPLRENVPRIIMIVTDGRPQDSVAEVAAKARNTGILIFAIGVGQVDLNTLKAIGSEPHKDHVFLVANFSQIESLTSVFQNKLCTVHMCSVLEHNCAHFCLNTPGSYICKCKQGYILSTDQKTCRIQDLCATEDHGCEQLCVNMLGSFVCQCYSGYTLAEDGKRCTAVDYCASENHGCEHECVNAESSYLCRCHEGFALNSDKKTCSKIDYCASSNHGCQHECVNAQTSALCRCLKGFMLNPDRKTCRRINYCALNKPGCEHECVNTEEGHYCRCRQGYNLDPNGKTCSRVDHCAQQDHGCEQLCLNTEESFVCQCSEGFLINDDLKTCSRADYCLLSNHGCEYSCVNTDKSFACQCPEGHVLRSDGKTCAKLDSCALGDHGCEHSCVSSEDSFVCQCFEGYILRDDGKTCRRKDVCQDVNHGCEHLCVNSGESYVCKCLEGFRLAEDGKRCRRKNVCKSTQHGCEHMCVNNGNSYLCRCSEGFVLAEDGKHCKRCTEGPIDLVFVIDGSKSLGEENFETVKHFVTGIIDSLAVSPKAARVGLLQYSTQVRTEFTLRGFSSAKEMKKAVTHMKYMGKGSMTGLALKHMFERSFTQVEGARPPSTQVPRVAIVFTDGRAQDDVSEWASKAKANGITMYAVGVGKAIEEELQEIASEPIDKHLFYAEDFSTMGEISEKLKEGICEALEDSGGRQDSAAWDLPQQAHQPTEPEPVTIKIKDLLSCSNFAVQHRFLFEEDNLSRSTQKLFHSTKSSGNPLEESQDQCKCENLILFQNVANEEVRKLTQRLEEMTQRMEALENRLKYR
- angiogenic sprouting of quiescent MB114 cell monolayers [1]: failed to significantly affect
